The assay addresses Tim50^IMS (purified, recombinant) (S. cerevisiae) (UniProt Q02776). The assay is described as follows: cross-linking.
Sequence of UniProt Q02776 (Q02776 133-476): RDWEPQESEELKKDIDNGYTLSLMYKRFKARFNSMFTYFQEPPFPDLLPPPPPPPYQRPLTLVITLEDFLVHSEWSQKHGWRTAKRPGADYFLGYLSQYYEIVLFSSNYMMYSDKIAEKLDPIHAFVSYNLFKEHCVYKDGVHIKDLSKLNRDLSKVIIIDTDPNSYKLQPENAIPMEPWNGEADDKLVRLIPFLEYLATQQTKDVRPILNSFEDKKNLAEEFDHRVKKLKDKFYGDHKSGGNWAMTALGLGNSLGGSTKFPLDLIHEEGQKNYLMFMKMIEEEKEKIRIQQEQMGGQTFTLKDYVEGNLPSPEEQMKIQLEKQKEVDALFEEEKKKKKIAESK

As to “[35S]Tim23(F114C) (from UniProt P32897 1-222) (natural protein)”, the fold cross-linking with TOCL over without TOCL was determined as 6 fold.

(Values after PMC5580885.)
